Results reported in US8026342B2, “Compositions and methods for binding sphingosine-1-phosphate” (Lpath, Inc., priority 2006, dated 2011).

Experiments:
CNV and vascular leakage = experiment: Vascular leakage and CNV area after laser rupture of Bruch's membrane; type: in vivo, C57BL/6 mice; conditions: 5 μg intraocular
Procedure: C57BL/6 mice (n=10) underwent laser rupture of Bruch's membrane in 3 locations in each eye and were given an intraocular injection of 5 μg of sonepcizumab in one eye and vehicle in the contralateral eye. At one week after laser rupture, the mice were given an intraperitoneal injection of 12 μl/g body weight of 1% fluorescein sodium and were euthanized 5 minutes later. The eyes were removed and fixed in PBS-buffered formalin at room temperature for 5 hours. Then the retinas were dissected, washed, and incubated with primary anti-PECAM-1. The retinas were then washed, incubated with secondary antibody (goat anti-rat IgG conjugated with rhodamine), and then flat mounted.
Quantification of CNV lesion area is measured by PECAM-1 staining. Quantification of vascular leakage is measured by fluorescein sodium staining. The total area of leakage from CNV=CNV+leakage (green)−area of CNV (red). Values represent the mean±SEM for n=10 mice/group. […] This is a 50% reduction in neovascularization (p-0.018). […] This is approximately a 38% reduction (p-0.017) in blood vessel leakage.

[1] = Circular dichroism thermal denaturation of LT1009; type: physicochemical
Procedure: Circular dichroism spectroscopy was performed separately from the formulation studies. An Aviv 202 CD spectrophotometer was used to perform these analyses. Near UV CD spectra were collected from 400 nm to 250 nm. In this region, the disulfides and aromatic side chains contribute to the CD signals. In the far UV wavelength region (250-190 nm), the spectra are dominated by the peptide backbone. Thermal denaturation curves were generated by monitoring at 205 nm, a wavelength commonly used for b-sheet proteins. Data was collected using 0.1 mg/ml samples with heating from 25° C. to 85° C. Data were collected in 1° C. increments. The total time for such a denaturation scan was between 70 and 90 minutes. The averaging time was 2 seconds.

[2] = Competitive ELISA for specificity: lipid competitors against anti-S1P mAb binding to coated S1P; conditions: for recognition of ceramide-1-phosphate (C1P): competitor C1P; for cross-reactivity to lysophosphatidic acid (LPA): competitor LPA
Procedure: As described in Example 1, below, bound antibody was detected by a second antibody, specific for the mouse or human IgG, conjugated with HRP. Chromogenic reactions were measured and reported as optical density (OD). The concentration of lipids used for the competition is indicated on the X-axis.
For cross reactivity, a competitive ELISA was performed as described above, except for the following alterations. The primary incubation consisted of the competitor (S1P, SPH, LPA, etc.) and a biotin-conjugated anti-S1P mAb. Biotinylation of the purified monoclonal antibody was performed using the EZ-Link Sulfo-NHS-Biotinylation kit (Pierce). […] The competitor was prepared as follows: lipid stocks were sonicated and dried under argon before reconstitution in DPBS/BSA [1 mg/ml fatty acid free BSA (Calbiochem) in DPBS (Invitrogen 14040-133)]. Purified anti-S1P mAb was diluted as necessary in PBS/0.5% Triton X-100. Competitor and antibody solutions were mixed together so to generate 3 parts competitor to 1 part antibody. A HRP-conjugated streptavidin secondary antibody (Jackson Immunoresearch) was used to generate signal.
i. Specificity. The humanized variants were tested for specificity in a competitive ELISA assay (FIG. 1) against S1P and several other biolipids.

[3] = Thermochallenge stability of antibody variants (TM); type: physicochemical
Procedure: iii. Stability. The humanized variants were tested for stability after challenge at high temperature. The approximate midpoints of the thermal unfolding transitions (TM) were determined for every humanized variant by subjecting the supernatants to temperatures ranging from 60 to 74° C. […] The binding properties of each variant were determined before and after thermochallenge.

For “LT1009: humanized anti-S1P IgG1/kappa mAb with Cys to Ala in HCDR2, light chain with 5 backmutations; SEQ ID NO: 31/32”, the “reduction in blood vessel leakage vs saline” value (CNV and vascular leakage) was ~38%, the “reduction in neovascularization vs saline” value (CNV and vascular leakage) was 50% and the “area of choroidal neovascularization (PECAM-1)” value (CNV and vascular leakage; one week after laser) was “approximately 0.015 mm^2”. For the same molecule, the “area of leakage from choroidal neovascularization (fluorescein)” value (CNV and vascular leakage; one week after laser) was “approximately 0.125 mm^2”, the “apparent Tm” value ([1]; pH 6.0) was “about 77 °C” and the “apparent Tm” value ([1]; pH 7.2) was “approximately 73 °C”.

B1: LT1002: murine anti-S1P monoclonal antibody, IgG1 kappa, from hybridoma clone 306D326.26 (antibody, listed as Mus sp., V domains shown)
VH: QAHLQQSDAELVKPGASVKISCKVSGFIFIDHTIHWMKQRPEQGLEWIGCISPRHDITKYNEMFRGKATLTADKSSTTAYIQVNSLTFEDSAVYFCARGGFYGSTIWFDFWGQGTTLTVS
VL: ETTVTQSPASLSMAIGEKVTIRCITTTDIDDDMNWFQQKPGEPPNLLISEGNILRPGVPSRFSSSGYGTDFLFTIENMLSEDVADYYCLQSDNLPFTFGSGTKLEIK
In the case of B1, the “Specificity (ELISA)” value [2] is reported as “High”, the “recognition of ceramide-1-phosphate (C1P)” value [2] is reported as “no antibody binding was observed” and the “recognition of ceramide-1-phosphate (C1P)” value ([2]; listed as SPHINGOMAB) is reported as “did not recognize”. The “cross-reactivity with dihydrosphingosine-1-phosphate (DH-S1P)” value ([2]; competitor DH-S1P) was “did cross react”, the “recognition of dihydrosphingosine (DH-SPH)” value ([2]; competitor DH-SPH) was “did not recognize” and the “cross-reactivity to lysophosphatidic acid (LPA)” value [2] was “no binding”. For the same molecule, the “cross-reactivity to lysophosphatidic acid (LPA)” value ([2]; listed as SPHINGOMAB) was “no cross-reactivity”, the “recognition of phosphatidyl ethanolamine (PE)” value ([2]; competitor PE) was “did not recognize” and the “recognition of phosphatidyl serine (PS)” value ([2]; competitor PS) was “did not recognize”. For the same molecule, the “recognition of sphingomyelin (SM)” value ([2]; competitor SM) was “did not recognize”, the “cross-reactivity with sphingosylphosphoryl choline (SPC)” value ([2]; competitor SPC) was “somewhat reduced” and the “cross-reactivity to sphingosine (SPH)” value ([2]; competitor SPH) was “no cross-reactivity”. For the same molecule, the “TM (approximate midpoint of thermal unfolding transition)” value [3] was 65 °C.
